What was measured:
[1] = target: T1, human BMP-6 (human, UniProt P22004 382-513, limits assumed); test: cell-based or functional assay
T1 sequence: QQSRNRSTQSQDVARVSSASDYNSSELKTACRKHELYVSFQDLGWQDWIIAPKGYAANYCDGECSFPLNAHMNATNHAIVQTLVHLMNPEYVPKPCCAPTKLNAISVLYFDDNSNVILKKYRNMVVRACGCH

[2] = target: T1, human BMP-6; test: cell-based or functional assay; remark: listed apart in the source
[3] = target: T1, human BMP-6; test: SPR (BIAcore), ratio of KD against MAB507, 37 C
[4] = target: T2, human BMP-5 (human, UniProt P22003 317-454, limits assumed); test: SPR (BIAcore), BMP immobilised on CM4 chip, antibody injected, 37 C
T2 sequence (looked up): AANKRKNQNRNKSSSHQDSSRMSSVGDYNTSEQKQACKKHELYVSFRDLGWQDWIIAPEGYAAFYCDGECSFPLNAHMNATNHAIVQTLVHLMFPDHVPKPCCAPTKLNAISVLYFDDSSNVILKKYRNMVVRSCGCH

[5] = target: T3, human BMP-7 (human, UniProt P18075 293-431); test: as above
T3 sequence (looked up): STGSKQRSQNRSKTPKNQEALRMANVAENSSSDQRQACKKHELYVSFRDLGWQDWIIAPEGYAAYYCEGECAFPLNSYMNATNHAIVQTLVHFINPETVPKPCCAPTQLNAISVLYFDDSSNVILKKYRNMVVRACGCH

[6] = target: T1, human BMP-6; test: SPR (BIAcore), BMP-6 immobilised on CM4 chip, antibody injected, 37 C
[7] = target: T4, rat BMP-6 (rat, UniProt Q04906 368-506, limits assumed); test: SPR (BIAcore), Fab on rat BMP-6, 37 C
T4 sequence (looked up): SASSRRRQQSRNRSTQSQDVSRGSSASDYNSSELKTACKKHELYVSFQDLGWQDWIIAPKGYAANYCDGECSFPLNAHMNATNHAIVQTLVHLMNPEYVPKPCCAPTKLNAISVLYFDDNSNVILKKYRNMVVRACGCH

[8] = target: T1, human BMP-6; test: SPR (BIAcore), Fab on human BMP-6, 37 C
[9] = target: T1, human BMP-6; test: SPR (BIAcore), Fab on human BMP-6, 37 C; remark: listed apart in the source
[10] = target: T5, Cynomolgus monkey BMP-6 (cynomolgus monkey); test: SPR (BIAcore), Fab on cynomolgus monkey BMP-6, 37 C
T5 construct: also called Cyno Monkey BMP-6

B1: Antibody I (antibody, human IgG4 S228P, kappa, F234A L235A, V domains shown)
VH: QVQLVQSGAEVKKPGSSVKVSCKASGYTFTSYAMHWVRQAPGQGLEWMGYINPYNDGTKYNENFKGRVTITADESTSTAYMELSSLRSEDTAVYYCARRPFGNAMDIWGQGTLVTVSS
VL: DIQMTQSPSSLSASVGDRVTITCRSSENIYRNLAWYQQKPGKAPKLLIYAATNLADGVPSRFSGSGSGTDFTLTISSLQPEDFATYYCQGIWGTPLTFGGGTKVEIKR
notes: Engineered antibody with human frameworks and constant regions
In the case of B1, the “fold potency against MAB507 in inhibition of BMP-6-induced hepcidin promoter luciferase activity” value [1] is reported as roughly 22 fold, the “Geometric Mean IC50 (nM), BMP-6 induced Hep_Luc Assay (hepcidin promoter luciferase, HepProm_Luc cells)” value [2] is reported as 0.99 nM and the “fold higher affinity than MAB507” value [3] is reported as 50 fold. For the same binder, the binding result [4] was “no binding (tested: up to 1000 nM antibody)”, the binding result [5] was “no binding (tested: up to 1000 nM antibody)” and the Kd [6] was 0.02 nM. For the same binder, the koff [6] was 4.05e-05 s⁻¹ and the kon [6] was 1.73e+06 M⁻¹ s⁻¹.

B2: Fab of Antibody I (Fab, V domains shown)
VH: QVQLVQSGAEVKKPGSSVKVSCKASGYTFTSYAMHWVRQAPGQGLEWMGYINPYNDGTKYNENFKGRVTITADESTSTAYMELSSLRSEDTAVYYCARRPFGNAMDIWGQGTLVTVSS
VL: DIQMTQSPSSLSASVGDRVTITCRSSENIYRNLAWYQQKPGKAPKLLIYAATNLADGVPSRFSGSGSGTDFTLTISSLQPEDFATYYCQGIWGTPLTFGGGTKVEIK
notes: These are the variable regions of Antibody I; also called Antibody I Fab
Binder B2 has a Kd [7] of 0.088 nM, a koff [7] of 0.0003 s⁻¹ and a kon [7] of 4.1e+06 M⁻¹ s⁻¹. The Kd [8] was 0.09 nM, the koff [8] was 0.00023 s⁻¹ and the kon [8] was 2.5e+06 M⁻¹ s⁻¹. For the same binder, the Kd [9] was 0.0845 nM, the koff [9] was 0.00028 s⁻¹ and the kon [9] was 3.7e+06 M⁻¹ s⁻¹. For the same binder, the Kd [10] was 0.0796 nM, the koff [10] was 0.00028 s⁻¹ and the kon [10] was 4.1e+06 M⁻¹ s⁻¹.

B3: Antibody II (antibody, human IgG4 S228P, kappa, F234A L235A, V domains shown)
VH: QVQLVQSGAEVKKPGSSVKVSCKASGYTFTSYAMHWVRQAPGQGLEWMGYINPYNRGTKYNENFKGRVTITADESTSTAYMELSSLRSEDTAVYYCARRPFGNAMDIWGQGTLVTVSS
VL: DIQMTQSPSSLSASVGDRVTITCRSSENIYRNLAWYQQKPGKAPKLLIYAATNLADGVPSRFSGSGSGTDFTLTISSLQPEDFATYYCQGIWGTPLTFGGGTKVEIKR
B3 was tested, and the “fold potency against MAB507 in inhibition of BMP-6-induced hepcidin promoter luciferase activity” value [1] was roughly 22 fold and the “Geometric Mean IC50 (nM), BMP-6 induced Hep_Luc Assay (hepcidin promoter luciferase, HepProm_Luc cells)” value [2] was 0.94 nM.

B4: Fab of Antibody II (Fab, V domains shown)
VH: QVQLVQSGAEVKKPGSSVKVSCKASGYTFTSYAMHWVRQAPGQGLEWMGYINPYNRGTKYNENFKGRVTITADESTSTAYMELSSLRSEDTAVYYCARRPFGNAMDIWGQGTLVTVSS
VL: DIQMTQSPSSLSASVGDRVTITCRSSENIYRNLAWYQQKPGKAPKLLIYAATNLADGVPSRFSGSGSGTDFTLTISSLQPEDFATYYCQGIWGTPLTFGGGTKVEIK
notes: These are the variable regions of Antibody II; also called Antibody II Fab
B4 gave a Kd [8] of 0.08 nM, a koff [8] of 0.00025 s⁻¹ and a kon [8] of 3e+06 M⁻¹ s⁻¹.

From US20140309404A1 (Eli Lilly, published 2014)
